Where a chain is given by its changes, count along the chain named. One block for each binder: values may come before it.
Target: T1, HMHA1 (Rho GTPase-activating protein 45), minor histocompatibility antigen HA-1H, R139H polymorphism peptide … (human)
T1 peptide: VLHDDLLEA
Experiment: chromium release, peptide titration on pulsed target cells; one value stated for the seven clones together (FIG. 2B); T cell clone or line
Protocol: (A) HLA-A2/HA-1^H multimer and CD8⁺ monoclonal antibody staining of seven (7) representative HA-1^H specific clones (1, 2, 10, 13, […], 16, and 5) and a control clone specific for another tumor antigen. (B) Data from a chromium release assay in which the seven HA-1^H-specific clones were tested for killing HA-1 peptide-pulsed target cells. (C) Data from cytotoxicity assays in which the HA-1^H-specific CTL clones were incubated with peptide-pulsed T2 cells, HA-1^H+ AML cell line THP-1, HA-1^H+ primary AML, or HA-1⁻ AML.
In addition, a chromium release assay (CRA) was used to test 7 of the HA-1-specific CTL clones (1, 2, 10, 13, 14, 16 and 5) for killing of HA-1^H peptide-pulsed targets. The T cell clones recognized HA-1^H peptide ([…])-pulsed target cells at very low peptide concentrations and half-maximal lysis is seen at a peptide concentration of 10 pM. (FIG. 2B) (ICC data not shown). Cytotoxicity of the isolated clones against cells with or without endogenous HA-1^H expression was also examined. The assays show 7 HA-1^H-specific CTL clones (TCR1, TCR2, TCR10, TCR13, TCR14, TCR16 and TCR5) lysing HA-1^H+ acute myeloid leukemia (AML) cell line (THP-1) and HA-1^H+ primary AML but not HA-1^H- AML (FIG. 2C).

B1: HA-1H TCR2 (TCR, V domains shown)
Valpha: KQEVTQIPAALSVPEGENLVLNCSFTDSAIYNLQWFRQDPGKGLTSLLLIQSSQREQTSGRLNASLDKSSGRSTLYIAASQPGDSATYLCAVIGLGGTYKYIFGTGTRLKVLA
Vbeta: GVSQDPRHKITKRGQNVTFRCDPISEHNRLYWYRQTLGQGPEFLTYFQNEAQLEKSRLLSDRFSAERPKGSFSTLEIQRTEQGDSAMYLCASSLVKGEKLFFGSGTQLSVL
EC50 of peptide: 0.01 nM

B2: HA-1H TCR16 (TCR, V domains shown)
Valpha: KQEVTQIPAALSVPEGENLVLNCSFTDSAIYNLQWFRQDPGKGLTSLLLIQSSQREQTSGRLNASLDKSSGRSTLYIAASQPGDSATYLCAVHLLNDYKLSFGAGTTVTVRA
Vbeta: B1 Vbeta with K96V, E98N, K99E, L100Q, S104P, Q107R, S109T
EC50 of peptide: 0.01 nM

B5: TCR1 (TCR, V domains shown)
Valpha: QQGEEDPQALSIQEGENATMNCSYKTSINNLQWYRQNSGRGLVHLILIRSNEREKHSGRLRVTLDTSKKSSSLLITASRAADTASYFCATKRDSGAGSYQLTFGKGTKLSVIP
Vbeta: GVSQDPRHKITKRGQNVTFRCDPISEHNRLYWYRQTLGQGPEFLTYFQNEAQLEKSRLLSDRFSAERPKGSFSTLEIQRTEQGDSAMYLCASSSTGGHNEQFFGPGTRLTVL
EC50 of peptide: 0.01 nM

Next, values leading:

EC50 of peptide: 0.01 nM
B3: TCR5 (TCR, V domains shown)
Valpha: QQGEEDPQALSIQEGENATMNCSYKTSINNLQWYRQNSGRGLVHLILIRSNEREKHSGRLRVTLDTSKKSSSLLITASRAADTASYFCATNSGNTPLVFGKGTRLSVIA
Vbeta: GVSQDPRHKITKRGQNVTFRCDPISEHNRLYWYRQTLGQGPEFLTYFQNEAQLEKSRLLSDRFSAERPKGSFSTLEIQRTEQGDSAMYLCASSLTTLDEQYVGPGTRLTVT

EC50 of peptide: 0.01 nM
B4: TCR10 (TCR, V domains shown)
Valpha: KNQVEQSPQSLIILEGKNCTLQCNYTVSPFSNLRWYKQDTGRGPVSLTIMTFSENTKSNGRYTATLDADTKQSSLHITASQLSDSASYICVVDSGGGADGLTFGKGTHLIIQP
Vbeta: B3 Vbeta with L94M, T95L, L97N, D98Y, V102F

From patent publication US20190211076A1 (published 2019)
